According to WO2018223004A1 (dated 2018):

Molecular target: T1, human CD20 (B-lymphocyte antigen CD20) (human, UniProt P11836 1-297)
T1 sequence (looked up): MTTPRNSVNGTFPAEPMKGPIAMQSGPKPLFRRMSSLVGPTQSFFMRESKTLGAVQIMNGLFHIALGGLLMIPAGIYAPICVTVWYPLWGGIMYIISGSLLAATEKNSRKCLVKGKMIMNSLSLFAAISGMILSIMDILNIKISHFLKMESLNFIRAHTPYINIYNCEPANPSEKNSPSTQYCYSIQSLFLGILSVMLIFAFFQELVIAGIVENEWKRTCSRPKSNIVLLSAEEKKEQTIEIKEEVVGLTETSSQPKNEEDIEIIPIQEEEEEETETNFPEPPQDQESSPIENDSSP
Assay: cell-based or functional assay

B1: XmAb13676 Anti-CD20 x Anti-CD3 Fab-scFv-Fc bispecific antibody (bispecific antibody)
heavy: QVQLVQSGAEVKKPGASVKVSCKASGYTFTSYNMHWVRQAPGQGLEWMGAIYPGNGDTSYNQKFQGRVTITADKSISTAYMELSSLRSEDTAVYYCARSTYYGGDWYFNVWGAGTLVTVSSASTKGPSVFPLAPSSKSTSGGTAALGCLVKDYFPEPVTVSWNSGALTSGVHTFPAVLQSSGLYSLSSVVTVPSSSLGTQTYICNVNHKPSDTKVDKKVEPKSCDKTHTCPPCPAPPVAGPSVFLFPPKPKDTLMISRTPEVTCVVVDVKHEDPEVKFNWYVDGVEVHNAKTKPREEEYNSTYRVVSVLTVLHQDWLNGKEYKCKVSNKALPAPIEKTISKAKGQPREPQVYTLPPSREEMTKNQVSLTCDVSGFYPSDIAVEWESDGQPENNYKTTPPVLDSDGSFFLYSKLTVDKSRWEQGDVFSCSVMHEALHNHYTQKSLSLSPGK
scFv: not shown
light: QIVLTQSPSSLSASVGDRVTITCRASSSVSYIHWFQQKPGKSPKPLIYATSNLASGVPVRFSGSGSGTDYTLTISSLQPEDFATYYCQQWTSNPPTFGGGTKVEIKRTVAAPSVFIFPPSDEQLKSGTASVVCLLNNFYPREAKVQWKVDNALQSGNSQESVTEQDSKDSTYSLSSTLTLSKADYEKHKVYACEVTHQGLSSPVTKSFNRGEC
- EC50 of Jeko-1 target cell killing in the absence of rituximab: 0.024 µg/mL
- EC50 of Jeko-1 target cell killing with 3 μg/ml rituximab: 0.051 µg/mL
- EC50 of Jeko-1 target cell killing with 10 μg/ml rituximab: 0.093 µg/mL
- EC50 of Jeko-1 target cell killing with 30 μg/ml rituximab: 0.162 µg/mL
- EC50 of Jeko-1 target cell killing with 100 μg/ml rituximab: 0.387 µg/mL
- EC50 of RTCC against Ramos cells with purified T cells from six healthy donors: 0.0053 to 0.0143 µg/mL
- potency of killing of SC-1 against the cell lines with high or intermediate CD20 levels: ~10 fold
